Reference: US9611303B2, “Modified biotin-binding protein” (Japan Tobacco Inc., priority 2009, dated 2017)

Legend:
[1] = Purification of LATM2 with 2-iminobiotin-agarose; type: binding; settings: for Recovery rate (%): Iminobiotin-agarose, binding at pH 12, elution with 50 mM NH4OAC (pH 4)
Method: LATM2 was purified through a column charged with 2-iminobiotin-agarose (manufactured by Sigma-Aldrich Corp.) in accordance with the method by Hofmann, et al., (1980). IPTG was added to 25 mL of a culture solution of E. coli transformed with each LATM2 in a final concentration of 1 mM to induce expression. The E. coli cells were collected by centrifugation, suspended in 1.5 mL of 50 mM CAPS (pH 12) containing 50 mM NaCl, and then sonicated. To the supernatant of the disrupted cells, 500 μL of 2-iminobiotin-agarose was added, which was then packed in a column. The column was sufficiently washed with 50 mM CAPS (pH 12) containing 500 mM NaCl, and elution was then performed with 50 mM NH4OAC (pH 4).
(§1) The recovery rate in Table 2 was calculated by dividing the amount of LATM2 protein after purification by the amount of LATM2 protein before purification and was expressed by percent by multiplying the quotient by 100. The degree of purification was the ratio of the amount of LATM2 protein to the total amount of proteins in the purified fraction and was expressed by percent by multiplying the ratio by 100. The recovery rates and the degrees of purification in biotin-agarose were the results after binding at pH 7 and elution with an excess amount of biotin.

[2] = Purification of LATM2 with biotin-agarose; type: binding
Method: Purification with biotin-agarose (manufactured by Sigma-Aldrich Corp.) was performed by the following procedure. After induced expression of 25 mL of a culture solution of E. coli for each LATM2, the E. coli cells were suspended in 1.5 mL of a 100 mM potassium phosphate buffer (pH 7.0), and then sonicated. To the supernatant of the disrupted cells. 400 μL of biotin-agarose was added, which was followed by upside-down mixing for 1 hr. […]
In TM2 S36A-T78A-D116A, the E. coli cells were suspended in 1.5 mL of 50 mM CAPS (pH 12) containing 50 mM NaCl, and then sonicated. To the disrupted cells, 400 μL of biotin-agarose was added, which was followed by upside-down mixing for 1 hr. The column was sufficiently washed with 50 mM CAPS (pH 12) containing 500 mM NaCl, and elution was then performed with 1 mL of PBS (pH 7.4) containing 10 mM biotin.
In TM2 S36A-D116A, the E. coli cells were suspended in 1.5 mL of a 100 mM potassium phosphate buffer (pH 4.0), and then sonicated. To the pupernatant of the disrupted cells, 400 μL of biotin-agarose was added. Washing was performed with a 100 mM potassium phosphate buffer (pH 4) containing 500 mM NaCl, and elution was performed with 1 mL of PBS (pH 7) containing 10 mM biotin. Biotin binding to LATM2 that has been eluted with an excess amount of biotin was removed by dialysis with a 20 mM potassium phosphate buffer overnight.
as §1

[3] = Subunit association by FPLC on Sephacryl S-100HR; type: physicochemical; settings: for Structure (identified by FPLC): Sephacryl S-100HR, 50 mM potassium phosphate, 500 mM NaCl; for Sephacryl (mL), elution peak position: tetramer 44 to 47 mL, dimer 51 to 54 mL, monomer 63 to 66 mL
Method: In order to analyze the subunit association conditions of LATM2, the molecular weight of each LATM2s was measured by FPLC. Sephacryl S-100HR (manufactured by GE Healthcare) was used as a column, a Gel Filtration Calibration Kit LMW (manufactured by GE Healthcare) was used as molecular weight markers, and 50 mM potassium phosphate containing 500 mM NaCl was used as a buffer.
The positions of the peaks of eluted tetramer were defined to be 44 to 47 mL after injection of WT-TM2 as a control. The peak of an eluted monomer appeared at around 63 to 66 mL and the peak of an eluted dimer appeared at around 51 to 54 mL, from result of loading the molecular weight markers.

Proteinase K = assay: Protease resistance of LATM2 (SDS-PAGE); settings: 5 μM Proteinase K, 30° C., 15 min, presence or absence of biotin
Method: Throughout the specification, “having protease resistance” refers to that a protein is not enzymatically decomposed or not substantially decomposed by protease treatment. The protease treatment is performed by, for example, proteinase K treatment at 30° C. for 15 min. The term “not enzymatically decomposed” refers to that bands of a tetramer, dimer, and/or monomer of the protein can be clearly detected by SDS-PAGE after enzyme treatment, as in wild-type TM2. That is, a protein not having protease resistance is decomposed into small molecules by protease treatment, and bands of the tetramer, dimer, and monomer are not detected by SDS-PAGE after the protease treatment. […] Accordingly, bands of the tetramer and/or the dimer or monomer generated by dissociation of the tetramer are detected by SDS-PAGE. […] of each of the LATM2s (TM2 S36A, TM2 […], TM2 […], TM2 […], TM2 […], TM2 S36A-[…], TM2 […], and […]) purified by biotin-agarose was subjected to a reaction in 50 mM Tris-HCl (pH 8.0) containing 5 μM Proteinase K and 5 mM CaCl2 at 30° C. for 15 min. […] Then, an SDS buffer was added to each reaction solution, followed by heat treatment at 95° C. for 10 min to terminate the reaction. The resulting sample was subjected to SDS-PAGE, followed by CBB staining.

[4] = Biotin-agarose, binding at pH 7, recovery with 10 mM biotin

| Molecule | binding to 2-iminobiotin-agarose [1] | Note (Iminobiotin-agarose) ([1]; FT = column flow-through fraction) | Recovery rate (%) [1] | Recover rate (%) [2, 4] | Structure (identified by FPLC) [3] | Sephacryl (mL), elution peak position [3] | decomposition by Proteinase K (Proteinase K) | recovery rate by binding at pH 12, extraction with acetic acid ([2]; Biotin-agarose) | Note (Biotin-agarose) ([2]; binding at pH 7, recovery with 10 mM biotin, FT = flow-through) | binding to biotin-agarose [2] | elution from biotin-agarose with an excess amount of biotin [2] | Structure (identified by FPLC) ([3]; listed as S36A) | Structure (identified by FPLC) ([3]; listed as D116A) | recover rate by elution with acetic acid ([2]; Biotin-agarose, elution with acetic acid) |
| --- | --- | --- | --- | --- | --- | --- | --- | --- | --- | --- | --- | --- | --- | --- |
| TM2 T78A-D116A: TM2 with 78th threonine and 116th aspartic acid replaced with alanine; SEQ ID NO: 22 (protein, Synthetic TM2 T78A-D116A) MSDVQSSLTGTWYNELNSKMELTANKDGTLTGKYLSKVGDVYVPYPLSGRYNLQPPAGQGVALGWAVSWENSKIHSAATWSGQFFSESSPVILTQWLLSSSTARGDVWESTLVGNASFTKTAPTEQQIAHAQLHCRAPRLK | did not bind | To FT | 0% | 95% | Tetramer | 46.37 mL | hardly decomposed | – | – | – | – | – | – | – |
| TM2P46T-D116A: TM2 with 46th proline replaced with threonine and 116th aspartic acid with alanine; SEQ ID NO: 16 (protein, Synthetic TM2 P46T-D116A) MSDVQSSLTGTWYNELNSKMELTANKDGTLTGKYLSKVGDVYVPYTLSGRYNLQPPAGQGVALGWAVSWENSKIHSATTWSGQFFSESSPVILTQWLLSSSTARGDVWESTLVGNASFTKTAPTEQQIAHAQLHCRAPRLK | – | – | 95% | 95% | Tetramer | 46.23 mL | hardly decomposed | – | – | – | – | – | – | – |
| TM2P46T-T78A-D116A: TM2 with P46T, T78A and D116A replacements; SEQ ID NO: 18 (protein, Synthetic TM2 P46T-T78A-D116A) MSDVQSSLTGTWYNELNSKMELTANKDGTLTGKYLSKVGDVYVPYTLSGRYNLQPPAGQGVALGWAVSWENSKIHSAATWSGQFFSESSPVILTQWLLSSSTARGDVWESTLVGNASFTKTAPTEQQIAHAQLHCRAPRLK | – | – | 95% | 95% | Tetramer | 48.24 mL | hardly decomposed | – | – | – | – | – | – | – |
| TM2P46T-T78A: TM2 with 46th proline replaced with threonine and 78th threonine with alanine; SEQ ID NO: 14 (protein, Synthetic TM2 P46T-T78A) MSDVQSSLTGTWYNELNSKMELTANKDGTLTGKYLSKVGDVYVPYTLSGRYNLQPPAGQGVALGWAVSWENSKIHSAATWSGQFFSESSPVILTQWLLSSSTARGDVWESTLVGNDSFTKTAPTEQQIAHAQLHCRAPRLK | – | – | 95% | 5% | Tetramer | 46.05 mL | hardly decomposed | recovery rate: 70% | note eluted | – | – | – | – | – |
| TM2 S36A: TM2 in which the 36th serine was replaced with alanine; SEQ ID NO: 6 (protein, Synthetic TM2 S36A) MSDVQSSLTGTWYNELNSKMELTANKDGTLTGKYLAKVGDVYVPYPLSGRYNLQPPAGQGVALGWAVSWENSKIHSATTWSGQFFSESSPVILTQWLLSSSTARGDVWESTLVGNDSFTKTAPTEQQIAHAQLHCRAPRLK | – | – | 95% | 95% | tetramer | 46.17 mL | hardly decomposed | – | – | efficiently adsorbs to biotin-agarose | eluted by addition of an excess amount of biotin | Tetramer | – | – |
| TM2 D116A: TM2 in which the 116th aspartic acid was replaced with alanine; SEQ ID NO: 12 (protein, Synthetic TM2 D116A) MSDVQSSLTGTWYNELNSKMELTANKDGTLTGKYLSKVGDVYVPYPLSGRYNLQPPAGQGVALGWAVSWENSKIHSATTWSGQFFSESSPVILTQWLLSSSTARGDVWESTLVGNASFTKTAPTEQQIAHAQLHCRAPRLK | – | – | 95% | 95% | tetramer | 46.22 mL | hardly decomposed | – | – | – | – | – | Tetramer | – |
| TM2 W80K: TM2 in which the 80th tryptophan was replaced with lysine; amino acid sequence SEQ ID NO: 4 (protein, Synthetic TM2 W80K) MSDVQSSLTGTWYNELNSKMELTANKDGTLTGKYLSKVGDVYVPYPLSGRYNLQPPAGQGVALGWAVSWENSKIHSATTKSGQFFSESSPVILTQWLLSSSTARGDVWESTLVGNDSFTKTAPTEQQIAHAQLHCRAPRLK | – | – | 95% | 50% | Tetramer | 44.4 mL | hardly decomposed | – | – | – | – | – | – | recover rate: 95% |
